# Test results published in patent US20240350583A1, “COMPOSITION FOR PREVENTING OR TREATING FIBROTIC DISEASES, COMPRISING HAPLN1” (Chung Ang University Industry Academic Cooperation …, priority 2021, published 2024).
# B1: rhHAPLN1: recombinant human HAPLN1 protein of SEQ ID NO: 1 produced in CHO-K1 cells, stabilized in acetic acid buffer, sucrose, PS80, pH 5.0 (protein, listed as Homo sapiens)
# chain: MKSLLLLVLISICWADHLSDNYTLDHDRAIHIQAENGPHLLVEAEQAKVFSHRGGNVTLPCKFYRDPTAFGSGIHKIRIKWTKLTSDYLKEVDVFVSMGYHKKTYGGYQGRVFLKGGSDSDASLVITDLTLEDYGRYKCEVIEGLEDDTVVVALDLQGVVFPYFPRLGRYNLNFHEAQQACLDQDAVIASFDQLYDAWRGGLDWCNAGWLSDGSVQYPITKPREPCGGQNTVPGVRNYGFWDKDKSRYDVFCFTSNFNGRFYYLIHPTKLTYDEAVQACLNDGAQIAKVGQIFAAWKILGYDRCDAGWLADGSVRYPISRPRRRCSPTEAAVRFVGFPDKKHKLYGVYCFRAYN
# Tested on: bleomycin-induced pulmonary fibrosis (BIPF)
# Experiment: Bleomycin-induced pulmonary fibrosis mouse model, treatment (inhalation from day 8)
# Assay type: in vivo
# Protocol: An experiment was conducted to verify the effect of ameliorating bleomycin-induced pulmonary fibrosis (BIPF) already developed by repeatedly administering the composition of the present disclosure by inhalation to animals with pulmonary fibrosis. Here, experimental results are presented that are basically similar to Example 12, but bleomycin-induced pulmonary fibrosis (BIPF) was sufficiently generated 7 days after bleomycin treatment, and that the composition of the present disclosure has the ability to treat fibrotic diseases.
# To establish a bleomycin-induced pulmonary fibrosis (PF) model, 8-week to 10-week-old female C57BL/6N mice were used, and divided into 4 groups (Normal, PBS Control, 0.00075% (w/w) rhHAPLN1, 0.0015% (w/w) rhHAPLN1), with 4 mice per group, and the IPF disease induction method was referred to the paper by Liu et al. (Methods in Molecular Biology 2017, DOI: 10.1007/978-1-4939-7113-8_2) (see FIG. 13A). […]
# Starting 8 days after bleomycin administration, the control was a mixture of 50 μl of a stock solution consisting of 20 mM Tris-HCl, 0.5 M NaCl, pH 8.0, 50% glycerol and 10 ml PBS (1×, pH 7.4, Gibco Co.) solution. […] The weight of each experimental animal was measured every 2 days to confirm that there was no change in weight, and a mass dosing system and aerosol chamber (Data Science International Co., Ltd.) were used to generate the fog. […]
# Next, three tissue slides were prepared per mouse by cutting the middle portion of the left large lobe of the mouse, and three sections were photographed randomly on one slide, and then, for a total of nine sections, the stained darker part was distinguished from the unstained white part, and the area of the stained darker part was measured using Image J software, and each figure obtained was averaged to obtain an average value per mouse. […]
molecule,measurement,setting,value
B1,H&E lung tissue form (FIG. 13B),rhHAPLN1 0.0015% (w/w),quite similar to that of the normal group
same,reduction of average area of dark (fibrotic) lung area compared to pulmonary fibrosis without treatment (FIG. 13C),"rhHAPLN1 0.0015% (w/w), nebulized 1 hour once daily for 14 days from 8 days after bleomycin",51%
same,Ashcroft score evaluation (FIG. 13E),rhHAPLN1 nebulized from 8 days after bleomycin,excellent therapeutic effect
